Reference: US12397037B2, “Methods and compositions for immunomodulation” (CHILDREN'S MEDICAL CENTER CORPORATION, priority 2014, dated 2025)

Test system: U87MG cells
Assay: Human Phospho-Kinase Array, U87MG cells treated with SEMA3F
Format: cell-based
Settings: 30 minutes
Protocol: FIG. 28A depicts U87MG cells untreated (control) or following treatment with SEMA3F (640 ng/ml) for 30 minutes. Cell lysates were evaluated by phosphoprotein kinase antibody array. FIG. 28B depicts results of the array validated by Western blot analysis. FIG. 28C depicts U87MG cells treated with SEMA3F (640 ng/ml) as a time course up to 60 minutes and were analyzed by Western blot. FIGS. 28B-28C are representative of 3 independent experiments. FIG. 28D depicts U87MG, Jurkat and HUVEC cells treated with SEMA3F (200, 600, 1800 ng/ml, bars from left to right) for 15 minutes (grey bars) or 30 minutes (black bars); as a positive control, HUVEC were treated with VEGF-A (25 ng/ml) for 15 and 30 minutes. In addition, HUVEC were pre-treated with SEMA3F (1800 ng/ml) or PBS as a control for 30 minutes and subsequently VEGF-A (25 ng/ml) was added to the culture for 15 and 30 minutes. PI-3K activity was analyzed by ELISA according to the manufacturer's instructions. Data represent the mean±SD of 3 experiments.
SEMA3F inhibits Akt, mTOR, and S6K phosphorylation. To determine the effect of SEMA3F on intracellular signaling responses, levels of phosphokinases in the NRP2-expressing human glioblastoma cell line U87MG were profiled.
Phospho-kinase array: The Human Phospho-Kinase Array Kit (ARY003) was obtained from R&D Systems. U87MG cells were treated with SEMA3F which was previously found to induce cytoskeletal collapse and inhibit RhoA activity (6). […] Thus, a concentration at 640 ng/ml was optimized to analyze SEMA3F signaling pathways. Cell lysates were collected at 30 minutes after SEMA3F treatment and the levels of phosphoproteins were analyzed with this array, according to the manufacturer's instructions.

B1: SEMA3F: Human recombinant full-length His-Myc-tagged SEMA3F, secreted by transfected 293T cells and purified; class 3 semaphorin, NRP-2 ligand (protein, listed as Homo sapiens)
chain: MLVAGLLLWASLLTGAWPSFPTQDHLPATPRVRLSFKELKATGTAHFFNFLLNTTDYRILLKDEDHDRMYVGSKDYVLSLDLHDINREPLIIHWAASPQRIEECVLSGKDVNGECGNFVRLIQPWNRTHLYVCGTGAYNPMCTYVNRGRRAQATPWTQTQAVRGRGSRATDGALRPMPTAPRQDYIFYLEPERLESGKGKCPYDPKLDTASALINEELYAGVYIDFMGTDAAIFRTLGKQTAMRTDQYNSRWLNDPSFIHAELIPDSAERNDDKLYFFFRERSAEAPQSPAVYARIGRICLNDDGGHCCLVNKWSTFLKARLVCSVPGEDGIETHFDELQDVFVQQTQDVRNPVIYAVFTSSGSVFRGSAVCVYSMADIRMVFNGPFAHKEGPNYQWMPFSGKMPYPRPGTCPGGTFTPSMKSTKDYPDEVINFMRSHPLMYQAVYPLQRRPLVVRTGAPYRLTTIAVDQVDAADGRYEVLFLGTDRGTVQKVIVLPKDDQELEELMLEEVEVFKDPAPVKTMTISSKRQQLYVASAVGVTHLSLHRCQAYGAACADCCLARDPYCAWDGQACSRYTASSKRRSRRQDVRHGNPIRQCRGFNSNANKNAVESVQYGVAGSAAFLECQPRSPQATVKWLFQRDPGDRRREIRAEDRFLRTEQGLLLRALQLSDRGLYSCTATENNFKHVVTRVQLHVLGRDAVHAALFPPLSMSAPPPPGAGPPTPPYQELAQLLAQPEVGLIHQYCQGYWRHVPPSPREAPGAPRSPEPQDQKKPRNRRHHPPDT
modifications: His-Myc tag
notes: Human recombinant full-length His-Myc-tagged SEMA3F, secreted by transfected 293T cells and purified; class 3 semaphorin, NRP-2 ligand
- intensity of dot/phosphoprotein AMPKa1 (T174) (SEMA3F 640 ng/ml, Image J): 0.269
- intensity of dot/phosphoprotein AMPKa2 (T172) (SEMA3F 640 ng/ml, Image J): 0.300
- intensity of dot/phosphoprotein Akt (S473) (SEMA3F 640 ng/ml, Image J): 0.396
- intensity of dot/phosphoprotein Akt (T308) (SEMA3F 640 ng/ml, Image J): 0.294
- intensity of dot/phosphoprotein CREB (S133) (SEMA3F 640 ng/ml, Image J): 0.295
- intensity of dot/phosphoprotein Chk-2 (T68) (SEMA3F 640 ng/ml, Image J): 0.297
- intensity of dot/phosphoprotein ERK1/2 (T202/Y204, T185/Y187) (SEMA3F 640 ng/ml, Image J): 0.301
- intensity of dot/phosphoprotein FAK (Y397) (SEMA3F 640 ng/ml, Image J): 0.275
- intensity of dot/phosphoprotein Fqr (Y412) (SEMA3F 640 ng/ml, Image J): 0.264
- intensity of dot/phosphoprotein Fyn (Y420) (SEMA3F 640 ng/ml, Image J): 0.276
- intensity of dot/phosphoprotein GSK-3a/b (S21/S9) (SEMA3F 640 ng/ml, Image J): 0.284
- intensity of dot/phosphoprotein HSP27 (S78/S82) (SEMA3F 640 ng/ml, Image J): 0.277
- intensity of dot/phosphoprotein Hck (Y411) (SEMA3F 640 ng/ml, Image J): 0.270
- intensity of dot/phosphoprotein JNK pan (T183/Y185, T221/Y223) (SEMA3F 640 ng/ml, Image J): 0.287
- intensity of dot/phosphoprotein Lck (Y394) (SEMA3F 640 ng/ml, Image J): 0.269
- intensity of dot/phosphoprotein Lyn (Y397) (SEMA3F 640 ng/ml, Image J): 0.269
- intensity of dot/phosphoprotein MEK1/2 (S218/S222, S222/S226) (SEMA3F 640 ng/ml, Image J): 0.277
- intensity of dot/phosphoprotein MSK1/2 (S376/S360) (SEMA3F 640 ng/ml, Image J): 0.293
- intensity of dot/phosphoprotein PLCq-1 (Y783) (SEMA3F 640 ng/ml, Image J): 0.262
- intensity of dot/phosphoprotein Paxillin (Y118) (SEMA3F 640 ng/ml, Image J): 0.264
- intensity of dot/phosphoprotein Pyk2 (Y402) (SEMA3F 640 ng/ml, Image J): 0.251
- intensity of dot/phosphoprotein RSK1/2 (S221/S227) (SEMA3F 640 ng/ml, Image J): 0.307
- intensity of dot/phosphoprotein RSK1/2/3 (S380/S386/S377) (SEMA3F 640 ng/ml, Image J): 0.320
- intensity of dot/phosphoprotein STAT1 (Y701) (SEMA3F 640 ng/ml, Image J): 0.298
- intensity of dot/phosphoprotein STAT2 (Y689) (SEMA3F 640 ng/ml, Image J): 0.305
- intensity of dot/phosphoprotein STAT3 (Y705) (SEMA3F 640 ng/ml, Image J): 0.270
- intensity of dot/phosphoprotein STAT4 (Y693) (SEMA3F 640 ng/ml, Image J): 0.285
- intensity of dot/phosphoprotein STAT5a (Y694) (SEMA3F 640 ng/ml, Image J): 0.281
- intensity of dot/phosphoprotein STAT5a/b (Y694/Y699) (SEMA3F 640 ng/ml, Image J): 0.311
- intensity of dot/phosphoprotein STAT5b (Y699) (SEMA3F 640 ng/ml, Image J): 0.270
- intensity of dot/phosphoprotein STAT6 (Y641) (SEMA3F 640 ng/ml, Image J): 0.304
- intensity of dot/phosphoprotein Src (Y419) (SEMA3F 640 ng/ml, Image J): 0.289
- intensity of dot/phosphoprotein TOR (S2448) (SEMA3F 640 ng/ml, Image J): 0.281
- intensity of dot/phosphoprotein Yes (Y426) (SEMA3F 640 ng/ml, Image J): 0.289
- intensity of dot/phosphoprotein b-Catenin (SEMA3F 640 ng/ml, Image J): 0.323
- intensity of dot/phosphoprotein c-Jun (S63) (SEMA3F 640 ng/ml, Image J): 0.263
- intensity of dot/phosphoprotein eNOS (S1177) (SEMA3F 640 ng/ml, Image J): 0.240
- intensity of dot/phosphoprotein p27 (T157) (SEMA3F 640 ng/ml, Image J): 0.249
- intensity of dot/phosphoprotein p27 (T198) (SEMA3F 640 ng/ml, Image J): 0.242
- intensity of dot/phosphoprotein p38a (T180/Y182) (SEMA3F 640 ng/ml, Image J): 0.268
- intensity of dot/phosphoprotein p53 (S15) (SEMA3F 640 ng/ml, Image J): 0.312
- intensity of dot/phosphoprotein p53 (S46) (SEMA3F 640 ng/ml, Image J): 0.321
- intensity of dot/phosphoprotein p53 (S392) (SEMA3F 640 ng/ml, Image J): 0.312
- intensity of dot/phosphoprotein p70 S6 Kinase (T229) (SEMA3F 640 ng/ml, Image J): 0.264
- intensity of dot/phosphoprotein p70 S6 Kinase (T389) (SEMA3F 640 ng/ml, Image J): 0.241
- intensity of dot/phosphoprotein p70 S6 Kinase (T421/S424) (SEMA3F 640 ng/ml, Image J): 0.299
- Ratio AMPKa1 (T174) (SEMA3F vs Control, 640 ng/ml): 92.7
- Ratio AMPKa2 (T172) (SEMA3F vs Control, 640 ng/ml): 94.5
- Ratio Akt (S473) (SEMA3F vs Control, 640 ng/ml): 77.4
- Ratio Akt (T308) (SEMA3F vs Control, 640 ng/ml): 92.6
- Ratio CREB (S133) (SEMA3F vs Control, 640 ng/ml): 91.3
- Ratio Chk-2 (T68) (SEMA3F vs Control, 640 ng/ml): 93.4
- Ratio ERK1/2 (T202/Y204, T185/Y187) (SEMA3F vs Control, 640 ng/ml): 91.2
- Ratio FAK (Y397) (SEMA3F vs Control, 640 ng/ml): 87.7
- Ratio Fqr (Y412) (SEMA3F vs Control, 640 ng/ml): 94.1
- Ratio Fyn (Y420) (SEMA3F vs Control, 640 ng/ml): 93.1
- Ratio GSK-3a/b (S21/S9) (SEMA3F vs Control, 640 ng/ml): 91.0
- Ratio HSP27 (S78/S82) (SEMA3F vs Control, 640 ng/ml): 94.0
- Ratio Hck (Y411) (SEMA3F vs Control, 640 ng/ml): 91.4
- Ratio JNK pan (T183/Y185, T221/Y223) (SEMA3F vs Control, 640 ng/ml): 91.5
- Ratio Lck (Y394) (SEMA3F vs Control, 640 ng/ml): 94.2
- Ratio Lyn (Y397) (SEMA3F vs Control, 640 ng/ml): 93.7
- Ratio MEK1/2 (S218/S222, S222/S226) (SEMA3F vs Control, 640 ng/ml): 92.8
- Ratio MSK1/2 (S376/S360) (SEMA3F vs Control, 640 ng/ml): 92.4
- Ratio PLCq-1 (Y783) (SEMA3F vs Control, 640 ng/ml): 95.1
- Ratio Paxillin (Y118) (SEMA3F vs Control, 640 ng/ml): 95.8
- Ratio Pyk2 (Y402) (SEMA3F vs Control, 640 ng/ml): 93.1
- Ratio RSK1/2 (S221/S227) (SEMA3F vs Control, 640 ng/ml): 97.8
- Ratio RSK1/2/3 (S380/S386/S377) (SEMA3F vs Control, 640 ng/ml): 98.8
- Ratio STAT1 (Y701) (SEMA3F vs Control, 640 ng/ml): 98.2
- Ratio STAT2 (Y689) (SEMA3F vs Control, 640 ng/ml): 95.3
- Ratio STAT3 (Y705) (SEMA3F vs Control, 640 ng/ml): 93.4
- Ratio STAT4 (Y693) (SEMA3F vs Control, 640 ng/ml): 96.4
- Ratio STAT5a (Y694) (SEMA3F vs Control, 640 ng/ml): 94.8
- Ratio STAT5a/b (Y694/Y699) (SEMA3F vs Control, 640 ng/ml): 90.1
- Ratio STAT5b (Y699) (SEMA3F vs Control, 640 ng/ml): 92.6
- Ratio STAT6 (Y641) (SEMA3F vs Control, 640 ng/ml): 96.3
- Ratio Src (Y419) (SEMA3F vs Control, 640 ng/ml): 91.0
- Ratio TOR (S2448) (SEMA3F vs Control, 640 ng/ml): 91.8
- Ratio Yes (Y426) (SEMA3F vs Control, 640 ng/ml): 94.6
- Ratio b-Catenin (SEMA3F vs Control, 640 ng/ml): 91.6
- Ratio c-Jun (S63) (SEMA3F vs Control, 640 ng/ml): 94.3
- Ratio eNOS (S1177) (SEMA3F vs Control, 640 ng/ml): 93.9
- Ratio p27 (T157) (SEMA3F vs Control, 640 ng/ml): 94.3
- Ratio p27 (T198) (SEMA3F vs Control, 640 ng/ml): 94.0
- Ratio p38a (T180/Y182) (SEMA3F vs Control, 640 ng/ml): 91.8
- Ratio p53 (S15) (SEMA3F vs Control, 640 ng/ml): 96.7
- Ratio p53 (S46) (SEMA3F vs Control, 640 ng/ml): 93.6
- Ratio p53 (S392) (SEMA3F vs Control, 640 ng/ml): 94.0
- Ratio p70 S6 Kinase (T229) (SEMA3F vs Control, 640 ng/ml): 100.0
- Ratio p70 S6 Kinase (T389) (SEMA3F vs Control, 640 ng/ml): 95.6
- Ratio p70 S6 Kinase (T421/S424) (SEMA3F vs Control, 640 ng/ml): 97.4
